In this test the target is cp283Δ8, cp283 with an eight-amino acid deletion in the loop connecting the native termini (Candida antarctica). In words: SEC.

The substance “cp283Δ8, cp283 with an eight-amino acid deletion in the loop connecting the native termini (enzyme)” yielded a stoichiometry N of 3.

(Values after paper PMC2753740.)
